Experimental data taken from patent US20250250357A1 (NANJING ZAIMING PHARMACEUTICAL, published 2025).
Residue numbers refer to the chain shown, from its start.

B1: F2.39.3-H5 (scFv, not shown: small tags and cut ends)
scFv: EVQLVQSGAEVKKPGASVKVSCKASGYTFTNYWMHWVRQAPGQGLEWMGNINPSSGDSYYNERFMSRVTMTVDKSTSTAYMELSSLRSEDTAVYYCARSGGLWLAFWGQGTLVTVSSGGGGSGGGGSGGGGSDIVMTQSPDSLAVSLGERATINCKSSQTLLNSVSQNNYLAWYQQKPGQSPKLLIYFASTRESGVPDRFSGSGSGTDFTLTISSLQAEDVAVYYCQQHYRTPYTFGGGTKVEIK
notes: also called S009-F2.39.3 humanized VH2 + VL1
B2: S009-F3.74.20 (antibody, human IgG1, kappa, V domains shown)
VH: RVQLQQSGAELVRPGASVTLSCKASGYTFTDSEMHWVKQTPVHGLEWIGAIDPEIDGTAYNQNFRDKAILTADKSSSTAYMELRSLTSEDSAVYYCTTYFGSGYGYFDVWGTGTTVTVSS
VL: DVVMTQTPLSLSVSLGDQASISCRSSQSLVYSNGNTYLHWFLQKPGQSPKLLIYKVSNRFSGVPDRFSGSGSGTDFTLKINRVEAEDLGVYFCSQSTHIPFTFGAGTKLELKR
notes: Human-murine chimeric antibody, human IgG1/kappa constant regions
B3: S009-F3.38.10 (antibody, human IgG1, kappa, V domains shown)
VH: EVQLQQSGPVLVKPGASVKMSCEASGYIFTDYYMNWVKKSHGKSLEWIGVINPKNGVISHNQKFKGKATLTVDKSSNTAYMELSSLTSEDSAVYYCANYGSRFYAMDYWGQGTSVTVSS
VL: DVVMTQTPLSLPVSLGDQASISCRSSQSLIHSDGNTYLQWYLQKSGQSPKLLIYKVSNRFSGVPDRFSGSGSGTDFTLKISRVETEDLGVYFCSQTTHVPFTFGSGTKLEIKR
notes: as for B2
B4: S009-F3.80.22 (antibody, human IgG1, kappa, V domains shown)
VH: QVQLQQSGAELVRPGASVTLSCKASGYTFTDYEIHWVKQTPVHGLEWIGAFDPEIGGSAYNQKFKDRATLTADKSSSTAYMELHSLTAEDSAVYYCTDYYGSSSGYFDVWGTGTTVTVSS
VL: B3 VL with I30E, S32N, D33N, Q39H, Y41F, Q43H, S45P, T85A, T96S
notes: as for B2
B5: S009-F3.7.3 (antibody, human IgG1, kappa, V domains shown)
VH: EVNFEESGGGLVQPGGSMKLSCVASGFTFSNYWMNWVRQSPEKGLEWVAQIRLKSDNYATHYAESVKGRFTISRDDFKSSVYLQMNNLRAEDTGIYYCTVGTGGYWGQGTTLTVSS
VL: DIVLTQSPASLAMSLGKRATISCRASESVSIVGTNVIHWFQQKPGQPPKLLIYHASNLETGVPARFSGSGSGTDFTLTIDPVEEDDVAIYHCLQSRKIPWTFGGGTKLEIKR
notes: Human-murine chimeric antibody: murine VH/VL on human IgG1 heavy chain constant region and human kappa constant region
B6: S009-F3.16.1 (antibody, human IgG1, kappa, V domains shown)
VH: B5 VH with N3K, T71S, F77S, T99S
VL: B5 VL with M13L, L15P, V32I, N35D, G72R, H91Y
notes: as for B2
B7: S009-F3-63.5 (antibody, human IgG1, kappa, V domains shown)
VH: QVQLQQSGAELVRPGASVTLSCKASGYTFTDYEMHWVKQTPVHGLEWIGGIDPETGDTAYNQQFKGKAILTADRSSSTAYMELRSLTSEDSAVYYCTNYASSREDYWGQGTTLTVSS
VL: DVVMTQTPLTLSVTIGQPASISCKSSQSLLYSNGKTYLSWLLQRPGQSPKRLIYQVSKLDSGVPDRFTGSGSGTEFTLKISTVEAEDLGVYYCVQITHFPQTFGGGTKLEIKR
notes: as for B2

Each binder was assayed against T1, human MSLN-hFc protein (Acro, Cat. No. MSN-H5253) (human, UniProt Q13421 296-580) (assay: ELISA, coated human MSLN-hFc, antibody 0.0001 nM).
T1 construct: bought protein; also called human MSLN full-length protein; not shown: human Fc (hFc) of the bought protein
T1 sequence (Q13421 other isoform, or with tags, fused parts or gaps limits assumed): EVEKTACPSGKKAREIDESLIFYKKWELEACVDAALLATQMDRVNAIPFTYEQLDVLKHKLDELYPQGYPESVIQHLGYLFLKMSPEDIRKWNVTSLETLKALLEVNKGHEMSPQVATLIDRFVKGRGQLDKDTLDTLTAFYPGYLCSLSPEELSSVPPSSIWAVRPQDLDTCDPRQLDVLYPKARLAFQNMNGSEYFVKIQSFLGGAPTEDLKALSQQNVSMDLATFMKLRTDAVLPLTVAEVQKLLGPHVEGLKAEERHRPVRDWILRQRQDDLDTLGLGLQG

OD450 nm	Binder
0.06	B1

The binders below were run against T2, human MSLN-R3-his protein (human, UniProt Q13421 487-598) (assay: ELISA, coated antigen; antibody 0.001 nM).
T2 construct: also called human MSLN-R3 protein; hMSLN-R3-his; not shown: His tag
T2 sequence (Q13421 495-606): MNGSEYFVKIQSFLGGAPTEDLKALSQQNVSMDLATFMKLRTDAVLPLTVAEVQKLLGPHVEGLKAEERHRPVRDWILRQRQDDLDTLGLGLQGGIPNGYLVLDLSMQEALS

OD450 [OD450]	Binder
0.1	B2
0.12	B3
0.12	B4
0.11	B5
0.15	B6
0.1	B7

The binders below were run against T3, human MSLN-R2-his protein (human, UniProt Q13421 391-486) (assay: ELISA, coated antigen; antibody 0.1 nM).
T3 construct: also called human MSLN-R2 protein; hMSLN-R2-his; not shown: His tag
T3 sequence (Q13421 other isoform, or with tags, fused parts or gaps): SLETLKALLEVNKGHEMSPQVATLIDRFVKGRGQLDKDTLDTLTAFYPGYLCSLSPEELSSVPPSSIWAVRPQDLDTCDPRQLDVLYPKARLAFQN

OD450 [OD450]	Binder
0.06	B2
0.18	B3
0.06	B4
0.07	B5
0.18	B6
0.05	B7

What follows are binders tested against T3, human MSLN-R2-his protein (assay: ELISA, coated antigen; antibody 1 nM).

OD450 [OD450]	Binder
0.09	B2
0.21	B3
0.06	B4
0.07	B5
0.06	B6
0.05	B7

Each binder was assayed against T2, human MSLN-R3-his protein (assay: ELISA, coated antigen; antibody 100 nM).

OD450 [OD450]	Binder
2.06	B2
2.05	B3
2.02	B4
2.16	B5
1.92	B6
2.36	B7

The binders below were run against T3, human MSLN-R2-his protein (assay: ELISA, coated antigen; antibody 10 nM).

OD450 [OD450]	Binder
0.17	B2
0.18	B3
0.17	B4
0.09	B5
0.08	B6
0.07	B7

Each binder was assayed against T4, human MSLN-R3-3 polypeptide (human) (assay: ELISA, coated antigen; antibody 1 nM).
T4 construct: also called human MSLN-R3-3 protein; hMSLN-R3-3

OD450 [OD450]	Binder
1.83	B2
0.08	B3
1.84	B4
0.07	B5
0.07	B6
1.75	B7

These binders were tested against T1, human MSLN-hFc protein (Acro, Cat. No. …) (assay: ELISA, coated human MSLN-hFc, antibody 0.001 nM).

OD450 nm	Binder
0.06	B1

The binders below were run against T4, human MSLN-R3-3 polypeptide (assay: ELISA, coated antigen; antibody 100 nM).

OD450 [OD450]	Binder
2.07	B2
0.32	B3
1.93	B4
0.11	B5
0.11	B6
2.3	B7

Each binder was assayed against T2, human MSLN-R3-his protein (assay: ELISA, coated antigen; antibody 0.1 nM).

OD450 [OD450]	Binder
1.07	B2
1.47	B3
1.55	B4
1.13	B5
1.61	B6
1.43	B7

Each binder was assayed against T3, human MSLN-R2-his protein (assay: ELISA, coated antigen; antibody 0.0001 nM).

OD450 [OD450]	Binder
0.06	B2
0.07	B3
0.07	B4
0.07	B5
0.06	B6
0.06	B7

These binders were tested against T3, human MSLN-R2-his protein (assay: ELISA, coated antigen; antibody 0.001 nM).

OD450 [OD450]	Binder
0.06	B2
0.06	B3
0.06	B4
0.07	B5
0.06	B6
0.05	B7

The binders below were run against T2, human MSLN-R3-his protein (assay: ELISA, coated antigen; no antibody (blank, column 'none')).

OD450 [OD450]	Binder
0.09	B2
0.09	B3
0.08	B4
0.08	B5
0.09	B6
0.06	B7

These binders were tested against T2, human MSLN-R3-his protein (assay: ELISA, coated antigen; antibody 0.0001 nM).

OD450 [OD450]	Binder
0.07	B2
0.08	B3
0.08	B4
0.07	B5
0.08	B6
0.06	B7

Each binder was assayed against T4, human MSLN-R3-3 polypeptide (assay: ELISA, coated antigen; antibody 0.1 nM).

OD450 [OD450]	Binder
0.96	B2
0.08	B3
1.47	B4
0.07	B5
0.08	B6
1.46	B7

What follows are binders tested against T1, human MSLN-hFc protein (Acro, Cat. No. …) (assay: ELISA, coated human MSLN-hFc, antibody 100 nM).

OD450 nm	Binder
1.87	B1

What follows are binders tested against T1, human MSLN-hFc protein (Acro, Cat. No. …) (assay: ELISA, coated human MSLN-hFc, antibody 1 nM).

OD450 nm	Binder
0.39	B1

These binders were tested against T3, human MSLN-R2-his protein (assay: ELISA, coated antigen; no antibody (blank, column 'none')).

OD450 [OD450]	Binder
0.07	B2
0.08	B3
0.07	B4
0.08	B5
0.08	B6
0.07	B7

The binders below were run against T2, human MSLN-R3-his protein (assay: ELISA, coated antigen; antibody 1 nM).

OD450 [OD450]	Binder
1.88	B2
1.71	B3
1.91	B4
1.63	B5
1.8	B6
1.78	B7

The binders below were run against T1, human MSLN-hFc protein (Acro, Cat. No. …) (assay: ELISA, coated human MSLN-hFc, antibody 10 nM).

OD450 nm	Binder
1.21	B1

The binders below were run against T4, human MSLN-R3-3 polypeptide (assay: ELISA, coated antigen; antibody 0.01 nM).

OD450 [OD450]	Binder
0.21	B2
0.08	B3
0.55	B4
0.07	B5
0.07	B6
0.4	B7

The binders below were run against T4, human MSLN-R3-3 polypeptide (assay: ELISA, coated antigen; no antibody (blank, column 'none')).

OD450 [OD450]	Binder
0.07	B2
0.07	B3
0.08	B4
0.08	B5
0.08	B6
0.07	B7

What follows are binders tested against T1, human MSLN-hFc protein (Acro, Cat. No. …) (assay: ELISA, coated human MSLN-hFc, antibody 0.1 nM).

OD450 nm	Binder
0.11	B1

The binders below were run against T1, human MSLN-hFc protein (Acro, Cat. No. …) (assay: ELISA, coated human MSLN-hFc, antibody 0.01 nM).

OD450 nm	Binder
0.06	B1

The binders below were run against T4, human MSLN-R3-3 polypeptide (assay: ELISA, coated antigen; antibody 10 nM).

OD450 [OD450]	Binder
1.9	B2
0.1	B3
1.91	B4
0.08	B5
0.08	B6
1.95	B7

What follows are binders tested against T4, human MSLN-R3-3 polypeptide (assay: ELISA, coated antigen; antibody 0.0001 nM).

OD450 [OD450]	Binder
0.07	B2
0.07	B3
0.08	B4
0.07	B5
0.07	B6
0.07	B7

What follows are binders tested against T2, human MSLN-R3-his protein (assay: ELISA, coated antigen; antibody 10 nM).

OD450 [OD450]	Binder
1.83	B2
1.85	B3
1.88	B4
1.74	B5
1.91	B6
1.98	B7

The binders below were run against T2, human MSLN-R3-his protein (assay: ELISA, coated antigen; antibody 0.01 nM).

OD450 [OD450]	Binder
0.29	B2
0.41	B3
0.51	B4
0.43	B5
0.65	B6
0.41	B7

These binders were tested against T3, human MSLN-R2-his protein (assay: ELISA, coated antigen; antibody 100 nM).

OD450 [OD450]	Binder
0.09	B2
0.13	B3
0.06	B4
0.12	B5
0.12	B6
0.09	B7

Each binder was assayed against T4, human MSLN-R3-3 polypeptide (assay: ELISA, coated antigen; antibody 0.001 nM).

OD450 [OD450]	Binder
0.09	B2
0.08	B3
0.15	B4
0.07	B5
0.08	B6
0.1	B7

The binders below were run against T3, human MSLN-R2-his protein (assay: ELISA, coated antigen; antibody 0.01 nM).

OD450 [OD450]	Binder
0.06	B2
0.11	B3
0.07	B4
0.06	B5
0.06	B6
0.05	B7
